B1: Sre1-CTD ΔC-tail variant, residues 628-876, C644S/C672S (domain or fragment, Schizosaccharomyces pombe, UniProt Q9UUD1 628-876, looked up)
chain: QHSKSSVHAELRELPESTANLIENSHADDVFSPNMVERLWVLAKSTRDSAQMSDSIISSLSDVLVLSPLEVLASWYAADLLDALLMESLSRKVEISEIEEIISLCPKNSSIIRHALLAKLVLFPENTADSLNEVLAAYKNTLDLCSQDKRKQSSVLKINLSKLFTLHSCLSLALQRLGYGDVSKRMYQEIFVPDSDADITPLSFIISWTALNTFAPICTSPKENDVVEKMAMYVRTAIGTLKIQDLKLS
B2: Sre1-CTD WY mutant, residues 628-896, W702D/Y703D (domain or fragment, Schizosaccharomyces pombe, UniProt Q9UUD1 628-896, looked up)
chain: QHSKSSVHAELRELPECTANLIENSHADDVFSPNMVERLWVLAKCTRDSAQMSDSIISSLSDVLVLSPLEVLASDDAADLLDALLMESLSRKVEISEIEEIISLCPKNSSIIRHALLAKLVLFPENTADSLNEVLAAYKNTLDLCSQDKRKQSSVLKINLSKLFTLHSCLSLALQRLGYGDVSKRMYQEIFVPDSDADITPLSFIISWTALNTFAPICTSPKENDVVEKMAMYVRTAIGTLKIQDLKLSRKLINSCIDIGSRLQEDLGY

Assays:
[1] = target: the molecule itself; assay: crystal structure
[2] = target: the molecule itself; assay: AUC

| Protein | stoichiometry N [1] | stoichiometry N [2] |
| --- | --- | --- |
| B1 | 2 | – |
| B2 | – | 2 |

Source: PMC5099872 (Cell Research, 2016)
